{"source": "patent US20140286957A1", "about": "(Teva, published 2014)", "binders": {"B1": {"name": "401.11.158 (antibody, V domains shown)", "VH": "QVQLVGSGGGLVKPGRSLRLSCAASGFTFDDYAMHWVRQAPGKGLEWVATIIWNSAIIGYADSVKGRFIVSRDNAKNSLYLQMNSLRAEDTALYYCAKDMCSSGGCPDGYFDSWGQGTLVTVSS", "VL": "DIQMTQSPSSVSASVGDRVTITCRASQHISSWLAWYQQKPGKAPKLLIYAASSLQSGVPSRFSGSGSGTDFTLTISSLQPEDFATYYCQQANRFPLTFGGGTKLEIKR", "notes": "IgG4 (S228P); biotinylated or Pacific Blue labelled in some assays"}}, "key": {"[1]": {"biological_target": "T1, Human CD1d/β2M (human, UniProt P15813 20-301; P61769 21-119)", "T1 construct": "also called hCD1d; recombinant human CD1d", "experiment": "SPR"}, "[2]": {"biological_target": "T2, Human CD1d on cells (human, UniProt P15813 20-335)", "T2 sequence (looked up)": "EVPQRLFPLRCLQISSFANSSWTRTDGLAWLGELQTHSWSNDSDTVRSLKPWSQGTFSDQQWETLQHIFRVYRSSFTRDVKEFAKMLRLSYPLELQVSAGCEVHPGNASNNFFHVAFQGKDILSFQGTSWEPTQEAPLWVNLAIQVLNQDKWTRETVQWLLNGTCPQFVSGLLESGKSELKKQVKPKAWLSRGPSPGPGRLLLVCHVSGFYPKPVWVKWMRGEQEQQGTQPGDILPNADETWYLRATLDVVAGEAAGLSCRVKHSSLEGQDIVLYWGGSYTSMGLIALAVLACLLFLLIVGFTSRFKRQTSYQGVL", "experiment": "cell-based or functional assay"}, "[3]": {"biological_target": "T2, Human CD1d on cells", "experiment": "cell-based or functional assay", "remark": "listed apart in the source"}, "[4]": {"biological_target": "T2, Human CD1d on cells", "experiment": "cell-based or functional assay", "remark": "listed apart in the source"}, "[5]": {"biological_target": "T2, Human CD1d on cells", "experiment": "cell-based or functional assay", "remark": "listed apart in the source"}, "[6]": {"biological_target": "T2, Human CD1d on cells", "experiment": "cell-based or functional assay", "remark": "listed apart in the source"}, "[7]": {"biological_target": "T2, Human CD1d on cells", "experiment": "cell-based or functional assay", "remark": "listed apart in the source"}, "[8]": {"biological_target": "T3, mCD1dhu (mouse with human segments)", "T3 chain": "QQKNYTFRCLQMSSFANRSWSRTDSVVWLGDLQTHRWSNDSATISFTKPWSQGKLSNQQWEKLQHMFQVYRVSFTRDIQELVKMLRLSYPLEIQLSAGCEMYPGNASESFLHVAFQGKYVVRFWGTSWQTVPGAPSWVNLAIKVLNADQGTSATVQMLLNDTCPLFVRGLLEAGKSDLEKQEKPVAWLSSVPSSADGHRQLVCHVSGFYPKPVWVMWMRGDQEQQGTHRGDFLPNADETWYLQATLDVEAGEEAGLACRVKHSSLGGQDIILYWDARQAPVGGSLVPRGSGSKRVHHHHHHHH", "experiment": "direct ELISA, plate coated with 1 µg/mL CD1d construct, HRP anti-human IgG (H+L) detection"}, "[9]": {"biological_target": "T4, Mouse CD1d (mouse, UniProt P11609 22-305)", "T4 construct": "Murine CD1d extracellular domain construct, HEK-293E; also called mCD1d; murine CD1d", "T4 sequence": "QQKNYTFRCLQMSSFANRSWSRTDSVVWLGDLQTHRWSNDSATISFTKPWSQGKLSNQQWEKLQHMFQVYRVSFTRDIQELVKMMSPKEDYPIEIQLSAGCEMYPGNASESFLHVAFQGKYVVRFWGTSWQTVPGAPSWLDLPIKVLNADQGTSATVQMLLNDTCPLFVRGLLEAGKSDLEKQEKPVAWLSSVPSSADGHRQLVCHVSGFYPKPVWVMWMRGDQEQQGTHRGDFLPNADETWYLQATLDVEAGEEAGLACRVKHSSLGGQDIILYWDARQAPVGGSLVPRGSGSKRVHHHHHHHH", "experiment": "direct ELISA, plate coated with 1 µg/mL CD1d construct, HRP anti-human IgG (H+L) detection"}, "[10]": {"biological_target": "T1, Human CD1d/β2M", "experiment": "direct ELISA, plate coated with 1 µg/mL CD1d construct, HRP anti-human IgG (H+L) detection"}, "[11]": {"biological_target": "T2, Human CD1d on cells", "experiment": "cell-based or functional assay", "remark": "listed apart in the source"}}, "note": "Like-named read-outs stand apart in the source and are kept apart here."}
{"binder": "B1", "values": [{"measurement": "Kd", "setting": "[1]", "result": 0.189, "unit": "nM"}, {"measurement": "NKT IFN-γ EC50 (moDC)", "setting": "[2]", "result": 2.8, "unit": "ng/mL"}, {"measurement": "NKT IL-4 EC50 (moDC)", "setting": "[2]", "result": 0.432, "unit": "ng/mL"}, {"measurement": "NKT IL-5 EC50 (moDC)", "setting": "[2]", "result": 0.704, "unit": "ng/mL"}, {"measurement": "NKT IL-13 EC50 (moDC)", "setting": "[2]", "result": 0.598, "unit": "ng/mL"}, {"measurement": "NKT IL-4 EC50 (moDC)", "setting": "[3]", "result": 0.58, "unit": "ng/mL"}, {"measurement": "NKT IL-13 EC50 (moDC)", "setting": "[3]", "result": 3.84, "unit": "ng/mL"}, {"measurement": "NKT IFN-γ EC50 (THP-1)", "setting": "[4]", "result": 2.6, "unit": "ng/mL"}, {"measurement": "NKT IFN-γ EC50 (moDC)", "setting": "[4]", "result": 3, "unit": "ng/mL"}, {"measurement": "NKT IL-4 EC50 (THP-1)", "setting": "[4]", "result": 2.2, "unit": "ng/mL"}, {"measurement": "NKT IL-4 EC50 (moDC)", "setting": "[4]", "result": 1.16, "unit": "ng/mL"}, {"measurement": "NKT IL-13 EC50 (THP-1)", "setting": "[4]", "result": 4.35, "unit": "ng/mL"}, {"measurement": "IFN-γ EC50 (C24:1 βGluCer, moDC)", "setting": "[5]", "result": 0.64, "unit": "ng/mL"}, {"measurement": "IL-4 EC50 (C24:1 βGluCer, moDC)", "setting": "[5]", "result": 0.682, "unit": "ng/mL"}, {"measurement": "IL-5 EC50 (C24:1 βGluCer, moDC)", "setting": "[5]", "result": 0.868, "unit": "ng/mL"}, {"measurement": "IL-13 EC50 (C24:1 βGluCer, moDC)", "setting": "[5]", "result": 1.44, "unit": "ng/mL"}, {"measurement": "TNF-α EC50 (C24:1 βGluCer, moDC)", "setting": "[5]", "result": 0.842, "unit": "ng/mL"}, {"measurement": "NKT IFN-γ EC50 (THP-1)", "setting": "[6]", "result": 6.4, "unit": "ng/mL"}, {"measurement": "NKT IL-4 EC50 (THP-1)", "setting": "[6]", "result": 2.66, "unit": "ng/mL"}, {"measurement": "NKT IL-5 EC50 (THP-1)", "setting": "[6]", "result": 4.5, "unit": "ng/mL"}, {"measurement": "NKT IL-13 EC50 (THP-1)", "setting": "[6]", "result": 7.78, "unit": "ng/mL"}, {"measurement": "NKT TNF EC50 (THP-1)", "setting": "[6]", "result": 4.14, "unit": "ng/mL"}, {"measurement": "NKT IFN-γ EC50 (moDC)", "setting": "[7]", "result": 8.16, "unit": "ng/mL"}, {"measurement": "NKT IL-4 EC50 (moDC)", "setting": "[7]", "result": 2.19, "unit": "ng/mL"}, {"measurement": "NKT IL-5 EC50 (moDC)", "setting": "[7]", "result": 6.13, "unit": "ng/mL"}, {"measurement": "NKT IL-13 EC50 (moDC)", "setting": "[7]", "result": 9.82, "unit": "ng/mL"}, {"measurement": "NKT TNF EC50 (moDC)", "setting": "[7]", "result": 4.3, "unit": "ng/mL"}, {"measurement": "EC50 (read off the curve)", "setting": "[8]", "result": "~100", "unit": "ng/mL"}, {"measurement": "binding result", "setting": "[9]", "result": "no binding"}, {"measurement": "EC50 (read off the curve)", "setting": "[10]", "result": "~8", "unit": "ng/mL"}, {"measurement": "fold improvement against 401.11 (IFN-γ, moDC)", "setting": "[11]", "result": "~4.8", "unit": "fold"}, {"measurement": "fold potency against antibody 42 (C24:1 βGluCer)", "setting": "[11]", "result": "≤ 216", "unit": "fold"}, {"measurement": "fold potency against antibody 51.1 (C24:1 βGluCer)", "setting": "[11]", "result": "≤ 175", "unit": "fold"}]}
